Assay results published in article doi:10.1101/2020.12.16.421545v1.

Substrate: CCCC(=O)Oc1ccc([N+](=O)[O-])cc1
Assay: purified protein
Format: biochemical, uncultured Pseudomonadota bacterium
Conditions: 36 nM enzyme, no added Co2+
[1] = without Triton X-100, sigmoidal (hysteresis)

B1: Ade1 (Amazonian Dark Earth Esterase 1) (uncultured Pseudomonadota bacterium) (protein)
chain: MLYAQVNGINLHYEIEGQGQPLLLIMGLGAPAAAWDPIFVQTLTKTHQVIIYDNRGTGLSDKPDMPYSIAMFASDAVGLLDALNIPRAHVFGVSMGGMIAQELAIHYPQRVASLILGCTTPGGKHAVPAPPESLKALEGRAGLTPEEAIREGWKLSFSEEFIHTHKAELEAHIPRLLAQLTPRFAYERHFQATMTLRVFKQLKEIQAPTLVATGRDDMLIPAVNSEILAREIPGAELAIFESAGHGFVTSAREPFLKVLKEFLARQSV
K0.5 (with Triton X-100): 254 ± 25 µM
kcat (with Triton X-100): 47 ± 1 s⁻¹
K0.5 [1]: 392 ± 29 µM
kcat [1]: 94 ± 3 s⁻¹
